{
  "source": "patent US20030104507A1",
  "about": "“Method for detection of ATP” (priority 2001, published 2003)",
  "molecules": {"B1": {"name": "LucPpe2m90: mutant luciferase derived from LucPpe2, SEQ ID NO:2 (protein)", "chain": "MADKNILYGPEPFYPLEDGTAGEQMFDALSRYADIPGCIALTNAHTKENVLYEEFLKLSCRLAESFKKYGLKQNDTIAVCSENGLQFFLPVIASLYLGIIVAPVNDKYIERELIHSLGIVKPRIVFCSKNTFQKVLNVKSKLKSIETIIILDLNEDLGGYQCLNNFISQNSDSNLDVKKFKPYSFNRDDQVALIMFSSGTTGLPKGVMLTHKNIVARFSLAKDPTFGNAINPTTAILTVIPFHHGFGMMTTLGYFTCGFRVVLMHTFEEKLFLQSLQDYKVESTLLVPTLMAFLAKSALVEKYDLSHLKEIASGGAPLSKEIGEMVKKRFKLNFVRQGYGLTETTSAVLITPKGDAKPGSTGKIVPFHAVKVVDPTTGKILGPNEPGELYFKGPMIMKGYYNNEEATKAIIDNDGWLRSGDIAYYDNDGHFYIVDRLKSLIKYKGYQVAPAEIEGILLQHPYIVDAGVTGIPDEAAGELPAAGVVVQTGKYLNEQIVQDYVASQVSTAKWLRGGVKFLDEIPKGSTGKIDRKVLRQMFEKHTNG", "modifications": "Mutant of LucPpe2 luciferase"}, "B2": {"name": "LucPpe2m146: mutant luciferase derived from LucPpe2, SEQ ID NO:4 (protein)", "chain": "MADKNILYGPEPFYPLEDGTAGEQMFDALSRYAAIPGCIALTNAHTKENVLYEEFLKLSCRLAESFKKYGLKQNDTIAVCSENSLQFFLPVIASLYLGIIVAPVNDKYIERELIHSLGIVKPRIVFCSKNTFQKVLNVKSKLKSIETIIILDLNEDLGGYQCLNNFISQNSDSNLDVKKFKPYSFNRDDQVASIMFSSGTTGLPKGVMLTHKNIVARFSIAKDPTFGNAINPTSAILTVIPFHHGFGMMTTLGYFTCGFRVVLMHTFEEKLFLQSLQDYKVESTLLVPTLMAFLAKSALVEKYDLSHLKEIASGGAPLSKEIGEMVKKRFKLNFVRQGYGLTETTSAVLITPKGDAKPGSTGKIVPLHAVKVVDPTTGKILGPNEPGELYFKGPMIMKGYYNNEEATKAIIDNDGWLRSGDIAYYDNDGHFYIVDRLKSLIKYKGYQVAPAEIEGILLQHPYIVDAGVTGIPDEAAGELPAAGVVVQTGKYLNEQIVQDYVASQVSTAKWLRGGVKFLDEIPKGSTGKIDRKVLRQMLEKHTNG", "modifications": "Mutant of LucPpe2 luciferase"}},
  "key": {"[1]": {"molecular_target": "native firefly luciferase (Photinus pyralis, UniProt P08659)", "sequence (P08659 whole entry)": "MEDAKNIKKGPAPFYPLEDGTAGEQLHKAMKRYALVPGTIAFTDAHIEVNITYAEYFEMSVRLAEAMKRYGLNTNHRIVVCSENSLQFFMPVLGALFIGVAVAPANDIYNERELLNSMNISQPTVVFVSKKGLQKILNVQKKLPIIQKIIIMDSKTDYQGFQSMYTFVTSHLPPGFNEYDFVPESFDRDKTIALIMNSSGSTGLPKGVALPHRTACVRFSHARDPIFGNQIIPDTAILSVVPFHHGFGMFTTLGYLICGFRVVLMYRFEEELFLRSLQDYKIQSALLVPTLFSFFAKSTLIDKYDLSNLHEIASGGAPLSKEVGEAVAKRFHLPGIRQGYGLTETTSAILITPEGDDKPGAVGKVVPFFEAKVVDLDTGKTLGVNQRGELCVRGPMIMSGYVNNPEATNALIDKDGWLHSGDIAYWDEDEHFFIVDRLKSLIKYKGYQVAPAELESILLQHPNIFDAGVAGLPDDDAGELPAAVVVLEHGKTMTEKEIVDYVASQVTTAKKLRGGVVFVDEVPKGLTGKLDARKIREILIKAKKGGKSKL", "details": "cited from earlier work"}, "LucPpe2m90": {"system": "LucPpe2m90", "type": "biochemical, Photuris pennsylvanica", "details": "for Half life: buffer; for Average rlu: 37° C.", "protocol": "(§1) The stability of a reagent composition composition comprising LucPpe2 luciferase was compared to a reagent composition comprising LucPpe2m90 and a reagent composition comprising LucPpe2m146, in the presence and absence of 0.1% DTAB. These mutant luciferases are thermostable; they are described in detail in PCT application PCT/US99/30925, filed Dec. 22, 1999.\n(§2) Each enzyme was diluted to 0.05 mg/ml to a final volume of 1.0 ml in either 25 mM HEPES, pH 8.0 or 20 mM citrate, pH 6.0; both with 100 mM NaCl, 1 mM EDTA, 0.1% gelatin and 5% glycerol. In half of the samples, 0.1% DTAB was added. The enzyme solutions (“reagent compositions”) were incubated at 37° C.\n(§3) At various timepoints, 10 μl of enzyme solution was transferred to a 96-well luminometer plate in triplicate. Then, in triplicate, 100 μl room temperature luciferase assay reagent (1 mM luciferin, 0.2 mM ATP, 10 MM MgSO4 in 50 mM HEPES, pH 8.0) was added to each 10 μl enzyme solution aliquot, mixed and immediately read in a Dynex MLX microtiter plate luminometer. The ATP in the luciferase assay reagent is at a saturating concentration. The average rlu values are reported, as are the half lives of the reagent composition activity as measured by luminescence (Table P). Half-life was calculated using the formula log (0.5)/slope of the data plotted as time (x axis) versus log value of rlu. The time zero is actually about 2-3 minutes after the mixing of enzyme and substrate; this could account for the lower numbers in the presence of DTAB at time 0 than in the absence of DTAB."}, "LucPpe2m146": {"system": "LucPpe2m146", "type": "biochemical, Photuris pennsylvanica", "details": "for Half life: buffer; for Average rlu: 37° C.", "protocol": "as §1, §2, §3"}},
  "note": "Like-named read-outs stand apart in the source and are kept apart here.",
  "data": [
    {"molecule": "Cc1cc(C(C)(C)CC(C)(C)C)ccc1OCCOCC[N+](C)(C)Cc1ccccc1.[Cl-]", "note": "[methylbenzethonium chloride]", "values": [
      {"measurement": "effect on native firefly luciferase", "setting": "[1]", "value": "inactivated"}
    ]},
    {"molecule": "benzalkonium chloride", "values": [
      {"measurement": "effect on native firefly luciferase", "setting": "[1]", "value": "inactivated"}
    ]},
    {"molecule": "B1", "values": [
      {"measurement": "Half life", "setting": "LucPpe2m90; pH 6", "value": 510.5, "unit": "min"},
      {"measurement": "Half life", "setting": "LucPpe2m90; pH 8", "value": 487.5, "unit": "min"},
      {"measurement": "Average rlu", "setting": "LucPpe2m90; pH 6.0 + 0.1% DTAB, 0 min", "value": 16263.53, "unit": "rlu"},
      {"measurement": "Average rlu", "setting": "LucPpe2m90; pH 6.0 + 0.1% DTAB, 59 min", "value": 15535.4, "unit": "rlu"},
      {"measurement": "Average rlu", "setting": "LucPpe2m90; pH 6.0 + 0.1% DTAB, 123 min", "value": 13421.5, "unit": "rlu"},
      {"measurement": "Average rlu", "setting": "LucPpe2m90; pH 6.0 + 0.1% DTAB, 183 min", "value": 14061.8, "unit": "rlu"},
      {"measurement": "Average rlu", "setting": "LucPpe2m90; pH 6.0 + 0.1% DTAB, 239 min", "value": 11924.03, "unit": "rlu"},
      {"measurement": "Average rlu", "setting": "LucPpe2m90; pH 6.0, 0 min", "value": 20031.03, "unit": "rlu"},
      {"measurement": "Average rlu", "setting": "LucPpe2m90; pH 6.0, 59 min", "value": 18453, "unit": "rlu"},
      {"measurement": "Average rlu", "setting": "LucPpe2m90; pH 6.0, 123 min", "value": 15966.03, "unit": "rlu"},
      {"measurement": "Average rlu", "setting": "LucPpe2m90; pH 6.0, 183 min", "value": 15546.4, "unit": "rlu"},
      {"measurement": "Average rlu", "setting": "LucPpe2m90; pH 6.0, 239 min", "value": 14519.63, "unit": "rlu"},
      {"measurement": "Average rlu", "setting": "LucPpe2m90; pH 8.0 + 0.1% DTAB, 0 min", "value": 22401.4, "unit": "rlu"},
      {"measurement": "Average rlu", "setting": "LucPpe2m90; pH 8.0 + 0.1% DTAB, 59 min", "value": 15332.67, "unit": "rlu"},
      {"measurement": "Average rlu", "setting": "LucPpe2m90; pH 8.0 + 0.1% DTAB, 123 min", "value": 12383.75, "unit": "rlu"},
      {"measurement": "Average rlu", "setting": "LucPpe2m90; pH 8.0 + 0.1% DTAB, 183 min", "value": 11271.25, "unit": "rlu"},
      {"measurement": "Average rlu", "setting": "LucPpe2m90; pH 8.0 + 0.1% DTAB, 239 min", "value": 9551.65, "unit": "rlu"},
      {"measurement": "Average rlu", "setting": "LucPpe2m90; pH 8.0, 0 min", "value": 15795.17, "unit": "rlu"},
      {"measurement": "Average rlu", "setting": "LucPpe2m90; pH 8.0, 59 min", "value": 15510.77, "unit": "rlu"},
      {"measurement": "Average rlu", "setting": "LucPpe2m90; pH 8.0, 123 min", "value": 13735.67, "unit": "rlu"},
      {"measurement": "Average rlu", "setting": "LucPpe2m90; pH 8.0, 183 min", "value": 13271.05, "unit": "rlu"},
      {"measurement": "Average rlu", "setting": "LucPpe2m90; pH 8.0, 239 min", "value": 11115.13, "unit": "rlu"}
    ]},
    {"molecule": "B2", "values": [
      {"measurement": "Half life", "setting": "LucPpe2m146; pH 6", "value": 820.8, "unit": "min"},
      {"measurement": "Half life", "setting": "LucPpe2m146; pH 8", "value": 595.5, "unit": "min"},
      {"measurement": "Average rlu", "setting": "LucPpe2m146; pH 6.0 + 0.1% DTAB, 0 min", "value": 5945.34, "unit": "rlu"},
      {"measurement": "Average rlu", "setting": "LucPpe2m146; pH 6.0 + 0.1% DTAB, 61 min", "value": 5989.65, "unit": "rlu"},
      {"measurement": "Average rlu", "setting": "LucPpe2m146; pH 6.0 + 0.1% DTAB, 125 min", "value": 3754.71, "unit": "rlu"},
      {"measurement": "Average rlu", "setting": "LucPpe2m146; pH 6.0 + 0.1% DTAB, 183 min", "value": 4839.58, "unit": "rlu"},
      {"measurement": "Average rlu", "setting": "LucPpe2m146; pH 6.0 + 0.1% DTAB, 237 min", "value": 4951.0, "unit": "rlu"},
      {"measurement": "Average rlu", "setting": "LucPpe2m146; pH 6.0, 0 min", "value": 7685.01, "unit": "rlu"},
      {"measurement": "Average rlu", "setting": "LucPpe2m146; pH 6.0, 61 min", "value": 7077.29, "unit": "rlu"},
      {"measurement": "Average rlu", "setting": "LucPpe2m146; pH 6.0, 125 min", "value": 5507.01, "unit": "rlu"},
      {"measurement": "Average rlu", "setting": "LucPpe2m146; pH 6.0, 183 min", "value": 6144.94, "unit": "rlu"},
      {"measurement": "Average rlu", "setting": "LucPpe2m146; pH 6.0, 237 min", "value": 6471.76, "unit": "rlu"},
      {"measurement": "Average rlu", "setting": "LucPpe2m146; pH 8.0 + 0.1% DTAB, 0 min", "value": 6445.57, "unit": "rlu"},
      {"measurement": "Average rlu", "setting": "LucPpe2m146; pH 8.0 + 0.1% DTAB, 61 min", "value": 6214.56, "unit": "rlu"},
      {"measurement": "Average rlu", "setting": "LucPpe2m146; pH 8.0 + 0.1% DTAB, 125 min", "value": 4018.92, "unit": "rlu"},
      {"measurement": "Average rlu", "setting": "LucPpe2m146; pH 8.0 + 0.1% DTAB, 183 min", "value": 4020.56, "unit": "rlu"},
      {"measurement": "Average rlu", "setting": "LucPpe2m146; pH 8.0 + 0.1% DTAB, 237 min", "value": 3734.59, "unit": "rlu"},
      {"measurement": "Average rlu", "setting": "LucPpe2m146; pH 8.0, 0 min", "value": 6652.84, "unit": "rlu"},
      {"measurement": "Average rlu", "setting": "LucPpe2m146; pH 8.0, 61 min", "value": 6577.91, "unit": "rlu"},
      {"measurement": "Average rlu", "setting": "LucPpe2m146; pH 8.0, 125 min", "value": 5192.73, "unit": "rlu"},
      {"measurement": "Average rlu", "setting": "LucPpe2m146; pH 8.0, 183 min", "value": 5476.86, "unit": "rlu"},
      {"measurement": "Average rlu", "setting": "LucPpe2m146; pH 8.0, 237 min", "value": 5174.22, "unit": "rlu"}
    ]}
  ]
}
